# Entries after “also recorded” stand apart in the source; their conditions may differ. Like-named read-outs stand apart in the source and are kept apart here.
# Key:
# PANC-1 cells = test: Apoptotic cell analysis by TUNEL assay in pancreatic carcinoma cells; format: cell-based; details: PANC-1, 10 uM
# Method: PANC-1 cells (pancreatic carcinoma cell line) were seeded in a 16-well chamber slide at a density of 5×10^3 cells/well, and then treated with 10 uM of aMTD/SD-fused SOCS3 for 24 hours. Apoptotic cells were analyzed using terminal dUTP nick-end labeling (TUNEL) assay with In Situ Cell Death Detection kit TMR red (Roche, 4056 Basel, Switzerland). Cells were treated with either 10 μM SOCS3 recombinant protein or buffer alone for 16 hrs with 2% fetal bovine serum (Hyclone, Logan, Utah, USA). Treated cells were washed with cold PBS two times, fixed in 4% paraformaldehyde (PFA, Junsei, Tokyo, Japan) for 1 hr at room temperature, and incubated in 0.1% Triton X-100 for 2 min on the ice. Cells were washed with cold PBS twice, and treated TUNEL reaction mixture for 1 hr at 37° C. in dark, washed cold PBS three times and observed by fluorescence microscopy (Nikon, Tokyo, Japan).
# [1] = Tissue-permeability / systemic delivery of FITC-labeled SOCS3 proteins after intraperitoneal injection; format: in vivo, ICR mice
# Method: To further investigate in vivo delivery of SOCS3 recombinant proteins, ICR mice (Doo-Yeol Biotech Co. Ltd., Seoul, Korea) were intraperitoneal (IP) injected with 600 μg/head of 10 μM FITC (Fluorescein isothiocyanate, SIGMA, USA)-labeled SOCS3 proteins and sacrificed after 2 hrs. From the mice, the liver, kidney, spleen, lung, heart, and brain were removed and washed with PBS, and then placed on a dry ice, and embedded with an O.C.T. compound (Sakura). After cryosectioning at 20 μm, tissue distributions of fluorescence-labeled-SOCS3 proteins in different organs was analyzed by fluorescence microscopy (Carl Zeiss, Gottingen, Germany)(FIG. 22).
# The liver tissue permeability was analyzed by the method described in Example 7-2.
# STAT1 = test: Inhibition of IFN-γ-induced STAT phosphorylation in PANC-1 cells (western blot), STAT1; format: cell-based; details: PANC-1, 10 ng/ml IFN-γ 15 min, 10 μM protein 2 hrs
# Method: (§1) PANC-1 Cells (KCLB, Seoul, South Korea) were treated with 10 ng/ml IFN-γ (R&D systems, Abingdon, UK) for 15 min and treated with either DMEM (vehicle) or 10 μM aMTD/SD-fused SOCS3 recombinant proteins for 2 hrs. The cells were lysed in RIPA lysis buffer (Biosesang, Seongnam, Korea) containing proteinase inhibitor cocktail (Roche, Indianapolis, Ind., USA), incubated for 15 min at 4° C., and centrifuged at 13,000 rpm for 10 min at 4° C. Equal amounts of lysates were separated on 10% SDS-PAGE gels and transferred to a nitrocellulose membrane. The membranes were blocked using 5% skim milk in TBST and for western blot analysis incubated with the following antibodies: anti-phospho-STAT1 (Cell Signaling Technology, USA) and anti-phospho-STAT3 (Cell Signaling Technology, USA), then HRP conjugated anti-rabbit secondary antibody (Santacruz).
# STAT3 = test: Inhibition of IFN-γ-induced STAT phosphorylation in PANC-1 cells (western blot), STAT3; format: cell-based
# Method: as §1
# as §1, with “(vehicle) or 1, 5, 10 μM” for “(vehicle) or 10 μM”, “following antibodies: anti-phospho-STAT3 (Cell” for “following antibodies: anti-phospho-STAT1 (Cell Signaling Technology, USA) and anti-phospho-STAT3 (Cell”
# [2] = Solubility/yield of SOCS3 recombinant proteins expressed and purified from E. coli; format: physicochemical
# Method: Thereafter, the recombinant protein gene-introduced E. coli was inoculated in 7 ml of LB medium, and then incubated at 37° C. overnight. The E. coli was inoculated in 700 ml of LB medium and incubated at 37° C. until OD600 reached 0.6. To this culture medium, 0.6 mM of isopropyl-β-D-thiogalactoside (IPTG, Gen Depot, USA) was added as a protein expression inducer, followed by further incubation at 37° C. for 3 hours. This culture medium was centrifuged at 4° C. and 8,000 rpm for 10 minutes and a supernatant was discarded to recover a cell pellet. The cell pellet thus recovered was suspended in a lysis buffer (100 mM NaH2PO4, 10 mM Tris-HCl, 8 M Urea, pH 8.0), and cells were disrupted by sonication (on/off time: 30 sec/30 sec, on time 2 hours, amplify 40%), and centrifuged at 15,000 rpm for 30 min to obtain a soluble fraction and an insoluble fraction.
# After purification, the proteins were put in a SnakeSkin Dialysis Tubing bag (pore size: 10000 mw, Thermo scientific, USA) and then they were dialyzed by physiological buffer (DMEM). The strain lysate where protein expression was not induced, the strain lysate where protein expression was induced by addition of IPTG, and purified proteins were loaded on SDS-PAGE to analyze protein expression characteristics and expression levels (FIGS. 19 and 20).
# Solubility of aMTD/SD-fused SOCS3 proteins was scored on a 5 point scale compared with that of SOCS3 proteins lacking the solubilization domain.
molecule,measurement,setting,value
"HM165S3B: His-tagged recombinant protein of aMTD165, human SOCS3 and solubilization domain B; prototype improved cell-permeable SOCS3 (protein, Amino acid sequence of HM165S3B) MGSSHHHHHHSSGLVPRGSHMALAVPVALAIVPVTHSKFPAAGMETSRPLDTSLRLKTFSSKSEYQLVVNAVRKLQESGFYWSAVTGGEANLLLSAEPAGTFLIRDSSDQRHFFTLSVKTQSGTKNLRIQCEGGSFSLQSDPRSTQPVPRFDCVLKLVHHYMETPPPGAPSFPSPPTEPSSEVPEQPSAQPLPGSPPRRAYYIYSGGEKIPLVLSRPLSSNVATLQHLCRKTVNGHLDSYEKVTQLPGPIREFLDQYDAPLGSMAEQSDKDVKYYTLEEIQKHKDSKSTWVILHHKVYDLTKFLEEHPGGEEVLGEQAGGDATENFEDVGHSTDARELSKTYIIGELHPDDRSKIAKPSETL",induction of cell death (TUNEL),PANC-1 cells,induced death of the largest number of cancer cells
same,tissue distribution / systemic delivery,"[1]; IP 600 μg/head FITC-labeled protein, sacrificed after 2 hrs, liver, kidney, spleen, lung, heart, brain","distributed to a variety of tissues (liver, kidney, spleen, lung, heart and, to a lesser extent, brain); also recorded: showed the highest systemic delivery of SOCS3 protein to the tissues; also recorded: exhibited superior cell-permeability"
same,systemic delivery to liver,[1]; intraperitoneal injection,enhanced the systemic delivery to liver
same,IFN-γ-induced phosphorylation of STAT1,STAT1,suppressed IFN-γ-induced phosphorylation of STAT1 and STAT3
same,IFN-γ-induced phosphorylation of STAT3,"STAT3; PANC-1, 10 ng/ml IFN-γ 15 min, 10 μM protein 2 hrs",suppressed IFN-γ-induced phosphorylation of STAT1 and STAT3
same,IFN-γ-induced phosphorylation of STAT3,"STAT3; PANC-1, 10 ng/ml IFN-γ 15 min, 1, 5, 10 μM protein 2 hrs",suppressed IFN-γ-induced phosphorylation of STAT3 in dose dependent manner
same,solubility/yield,[2],high solubility/yield
same,solubility (tendency to precipitate),[2]; expressed and purified in E. coli,had little tendency to precipitate
same,solubility/yield,[2]; listed as SDB-fused iCP-SOCS3 recombinant protein,showed the highest solubility/yield
same,solubility/yield,[2]; listed as aMTD165/SD-fused SOCS3 recombinant proteins,much higher than that of TAT/SD-fused SOCS3 or PolyR/SD-fused SOCS3 recombinant proteins

# Reference: patent US10385103B2, “Cell-permeable (ICP)-SOCS3 recombinant protein and uses thereof” (CELLIVERY THERAPEUTICS, INC., priority 2014, dated 2019)
